We go through four molecules from US20240239898A1 (published 2024).

The target in assay [1] is recombinant human FcRn (heterodimer of FcRn heavy chain and beta2-microglobulin) (human) (UniProt P55899). Put plainly: BLI (Octet), biotinylated human FcRn on streptavidin sensors, pH 6, 1:1 model. In general terms: BLI is a label-free optical method that tracks binding on a fibre tip over time.
In assay [2] the target is T1, recombinant human FcRn (heterodimer of FcRn heavy chain and beta2-microglobulin) (human, UniProt P55899 24-297; P61769 21-119, limits assumed, biotinylated for the Octet assay (site not stated)).
T1 construct: In-house recombinant heterodimeric FcRn; captured as biotinylated protein on streptavidin sensors for BLI; also called hFcRn; Fc neonatal receptor
T1 sequence (P55899 24-297 limits assumed, chain 1 of 2): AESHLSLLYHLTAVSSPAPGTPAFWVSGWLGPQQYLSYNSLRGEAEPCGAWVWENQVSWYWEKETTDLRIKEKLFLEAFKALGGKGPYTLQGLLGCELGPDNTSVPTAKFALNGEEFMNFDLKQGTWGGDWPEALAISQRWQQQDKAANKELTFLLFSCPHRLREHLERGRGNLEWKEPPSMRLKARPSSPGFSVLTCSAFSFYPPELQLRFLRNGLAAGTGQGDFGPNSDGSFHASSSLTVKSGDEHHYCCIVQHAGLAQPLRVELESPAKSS
T1 sequence (P61769 21-119 limits assumed, chain 2 of 2): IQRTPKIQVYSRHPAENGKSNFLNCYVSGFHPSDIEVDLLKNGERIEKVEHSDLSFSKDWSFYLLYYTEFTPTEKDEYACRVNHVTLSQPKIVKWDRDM
Put plainly: BLI (Octet) on recombinant FcRn, pH 6 against neutral pH. Here is the method:
(§1) Octet binding analysis. […] Biotinylated FcRn at 1 μg/mL in PBS buffer (pH 7.4) or 100 mM MES buffer (pH 6.0), with 3 mg/mL bovine serum albumin, 0.05% (vol/vol) and Tween 20 (1× Kinetics Buffer; ForteBio), were captured on streptavidin biosensors (ForteBio). The loaded biosensors were washed with assay buffer to remove any unbound protein, followed by association and dissociation measurements with serial dilutions of the different Fc variants or Fc fusion constructs. Octet software (version 7.2) was used to calculate kinetic parameters (kₒₙ and koff) and apparent affinities (KD) from a nonlinear fit based on the 1:1 binding kinetic model of the data, with the equation

Assay [3] deals with T1, recombinant human FcRn (heterodimer of …). Description: BLI (Octet), biotinylated human FcRn on streptavidin sensors, pH 6, 1:1 model. As to the method:
as §1

Chain of recombinant human FcRn (heterodimer of FcRn heavy chain and beta2-microglobulin) (human) (P55899 24-297 limits assumed, chain 1 of 2): as the sequence (P55899 24-297 limits assumed, chain 1 of 2) above
Chain of recombinant human FcRn (heterodimer of FcRn heavy chain and beta2-microglobulin) (human) (P61769 21-119 limits assumed, chain 2 of 2, further chain): as the sequence (P61769 21-119 limits assumed, chain 2 of 2) above

In the case of “MFc1 (C4), monomeric IgG4 Fc variant with YTE mutations (from UniProt P01861 111-327)”, the Kd in assay [1] came out at 370 nM.

B1: MFc4 (T1-S354E), monomeric IgG4 Fc variant (other)
chain: GPSVFLFPPKPKDTLMISRTPEVTCVVVDVSQEDPEVQFNWYVDGVEVHNAKTKPREEQFNSTYRVVSVLTVLHQDWLNGKEYKCKVSNKGLPSSIEKTISKAKGQPREPQVYTFPPEQEEMTKNQVSLRCLVKGFYPSDIAVEWESNGQPENNYKTTKPVLDSDGSFRLESRLTVDKSRWQEGNVFSCSVMHEACSYHLCKSLSLSL
notes: Engineered IgG4 CH2-CH3 with the CH3 monomer set, S354E and the half-life mutation set around residues 432-438 in place of YTE
Regarding B1, in assay [2], the “fold decrease from pH 6 binding to neutral pH binding” value was roughly 50 fold. Moreover, in assay [3], the Kd amounted to 5 nM.

B2: MFc2 (C4n), monomeric IgG4 Fc variant with no YTE mutations (other)
chain: GPSVFLFPPKPKDTLMISRTPEVTCVVVDVSQEDPEVQFNWYVDGVEVHNAKTKPREEQFNSTYRVVSVLTVLHQDWLNGKEYKCKVSNKGLPSSIEKTISKAKGQPREPQVYTFPPSQEEMTKNQVSLRCLVKGFYPSDIAVEWESNGQPENNYKTTKPVLDSDGSFRLESRLTVDKSRWQEGNVFSCSVMHEALHNHYTQKSLSLSL
For the molecule B2, the Kd in assay [3] is 3560 nM.

B3: MFc3, the S354E point mutant of MFc1 (other)
chain: GPSVFLFPPKPKDTLYITREPEVTCVVVDVSQEDPEVQFNWYVDGVEVHNAKTKPREEQFNSTYRVVSVLTVLHQDWLNGKEYKCKVSNKGLPSSIEKTISKAKGQPREPQVYTFPPEQEEMTKNQVSLRCLVKGFYPSDIAVEWESNGQPENNYKTTKPVLDSDGSFRLESRLTVDKSRWQEGNVFSCSVMHEALHNHYTQKSLSLSL
On to B3, for which, in assay [2], the “fold decrease from pH 6 binding to neutral pH binding” value is roughly 50 fold. Besides, the Kd in assay [3] was determined as 330 nM.

For orientation: Kd means the free concentration of one partner at which half of the binding sites on the other are occupied at equilibrium, for simple one-to-one binding.
